This assay deals with T1, CD20 (Homo sapiens, UniProt P11836).
T1 chain: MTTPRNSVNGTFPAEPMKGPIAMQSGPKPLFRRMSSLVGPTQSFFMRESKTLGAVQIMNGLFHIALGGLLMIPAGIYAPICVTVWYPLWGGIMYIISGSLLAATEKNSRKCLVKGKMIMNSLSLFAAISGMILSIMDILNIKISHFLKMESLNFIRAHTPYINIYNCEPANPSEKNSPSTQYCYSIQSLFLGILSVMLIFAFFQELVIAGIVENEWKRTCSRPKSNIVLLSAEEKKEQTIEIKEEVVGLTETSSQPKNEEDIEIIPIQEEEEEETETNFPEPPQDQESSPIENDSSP
Nature of the assay: saturation binding.

B1: Rituximab (antibody, V domains shown)
VH: QVQLQQPGAELVKPGASVKMSCKASGYTFTSYNMHWVKQTPGRGLEWIGAIYPGNGDTSYNQKFKGKATLTADKSSSTAYMQLSSLTSEDSAVYYCARSTYYGGDWYFNVWGAGTTVTVSA
VL: QIVLSQSPAILSASPGEKVTMTCRASSSVSYIHWFQQKPGSSPKPWIYATSNLASGVPVRFSGSGSGTSYSLTISRVEAEDAATYYCQQWTSNPPTFGGGTKLEIK
modifications: 90Y-DOTA conjugated
In the case of B1, binding was characterised by a dissociation constant (Kd) of 2.84 nM.

The Kd is the free concentration of one partner at which half of the binding sites on the other are occupied at equilibrium, for simple one-to-one binding.

(Values after publication PMC5603870 (2017).)
